The target in test [1] is T1, GDF11 (Homo sapiens, UniProt O95390).
T1 sequence (O95390 299-407): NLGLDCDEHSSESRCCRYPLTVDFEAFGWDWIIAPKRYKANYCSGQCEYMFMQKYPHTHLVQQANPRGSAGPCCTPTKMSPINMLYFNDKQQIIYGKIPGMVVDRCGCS
The test is described as follows: Biacore ligand binding profile, ALK4-Fc:ActRIIB-Fc heterodimer vs homodimers, anti-Fc capture (Example 13, Table 13). The conditions noted are these: ligand GDF11, Table 13. As for the experimental part:
(§1) A Biacore™-based binding assay was used to compare ligand binding selectivity of the ALK4-Fc:ActRIIB-Fc heterodimeric complex described above with that of ActRIIB-Fc and ALK4-Fc homodimer complexes. The ALK4-Fc:ActRIeB-Fc heterodimer, […], and ALK4-Fc homodimer were independently captured onto the system using an anti-Fc antibody. Ligands were injected and allowed to flow over the captured receptor protein. Results are summarized in Table 13 below, in which ligand off-rates (kd) most indicative of effective polypeptides are denoted in bold.
In general terms: In SPR one partner is held on a chip, and binding of the other changes the refractive index at the surface.

Test [2] has as its target T2, GDF8 (Homo sapiens, UniProt O14793).
T2 sequence (O14793 267-375): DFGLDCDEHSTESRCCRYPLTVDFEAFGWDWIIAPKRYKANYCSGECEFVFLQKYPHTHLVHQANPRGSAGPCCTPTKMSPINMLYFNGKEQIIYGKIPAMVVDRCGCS
The description is as above. The conditions noted are these: ligand GDF8, Table 13. How it is done:
as §1

In test [3] the target is T3, activin A (Homo sapiens, UniProt P08476).
T3 sequence (P08476 311-426): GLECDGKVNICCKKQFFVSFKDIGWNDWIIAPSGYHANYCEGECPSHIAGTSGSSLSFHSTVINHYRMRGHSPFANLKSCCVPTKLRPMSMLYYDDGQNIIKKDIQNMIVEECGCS
Described as above. The conditions noted are these: ligand Activin A, Table 13. As for the experimental part:
as §1

For test [4], the target named is T4, activin B (Homo sapiens, UniProt P09529).
T4 sequence (P09529 293-407): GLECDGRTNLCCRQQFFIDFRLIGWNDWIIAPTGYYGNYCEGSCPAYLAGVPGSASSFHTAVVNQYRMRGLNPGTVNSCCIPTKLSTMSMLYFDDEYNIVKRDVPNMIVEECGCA
The description is as above. The following applies: ligand Activin B, Table 13. How it is done:
as §1

Test [5] deals with T5, BMP10 (Homo sapiens, UniProt O95393).
T5 sequence (O95393 317-424): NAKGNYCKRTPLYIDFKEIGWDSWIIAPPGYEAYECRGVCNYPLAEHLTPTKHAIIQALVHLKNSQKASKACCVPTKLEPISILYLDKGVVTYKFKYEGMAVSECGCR
In words: Biacore ligand binding profile, ActRIIA-Fc:ALK4-Fc heterodimer vs homodimers, anti-Fc capture (Example 17, Table 14). The following applies: ligand BMP10, Table 14. As for the experimental part: (§2) A Biacore™-based binding assay was used to compare ligand binding selectivity of the ActRIIA-Fc:ALK4-Fc heterodimeric complex described above with that of ActRIIA-Fc and ALK4-Fc homodimeric complexes. The ActRIIA-Fc:ALK4-Fc heterodimer, ActRIIA-Fc homodimer, and ALK4-Fc homodimer were independently captured onto the system using an anti-Fc antibody. Ligands were injected and allowed to flow over the captured receptor protein. Results are summarized in Table 14 below, in which ligand off-rates (kd) most indicative of effective ligand traps are denoted in bold.

The target of test [6] is T6, BMP6 (Homo sapiens, UniProt P22004).
T6 sequence (P22004 375-513): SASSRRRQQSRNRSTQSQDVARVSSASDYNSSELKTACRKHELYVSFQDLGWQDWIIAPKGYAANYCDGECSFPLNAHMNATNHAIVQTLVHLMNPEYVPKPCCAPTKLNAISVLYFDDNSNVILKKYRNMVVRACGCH
Described as above. The conditions noted are these: ligand BMP6, Table 14. How it is done:
as §2

The target of the next test is T7, BMP7 (Homo sapiens, UniProt P18075).
T7 sequence (P18075 293-431): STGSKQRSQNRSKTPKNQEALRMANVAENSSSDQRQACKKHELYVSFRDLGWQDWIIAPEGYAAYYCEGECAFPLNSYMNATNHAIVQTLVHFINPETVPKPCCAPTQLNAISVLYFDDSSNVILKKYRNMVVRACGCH
The description is as above. The conditions noted are these: ligand BMP7, Table 14. As for the experimental part:
as §2

Test [7] has as its target T1, GDF11. The description is as above. The following applies: ligand GDF11, Table 14. As for the experimental part:
as §2

The target of test [8] is T2, GDF8. Described as above. The following applies: ligand GDF8, Table 14. As for the experimental part: as §2
Test [9] has as its target T3, activin A. The test is described as above. The following applies: ligand Activin A, Table 14. How it is done:
as §2

A further test concerns the target T8, activin AB (Homo sapiens, UniProt P08476+P09529).
T8 sequence (P08476 311-426): T3 sequence (P08476 311-426)
T8 sequence (P09529 293-407): T4 sequence (P09529 293-407)
The description is as above. The conditions noted are these: ligand Activin AB, Table 14. How it is done: as §2

The next test has as its target T9, activin AC (Homo sapiens, UniProt P08476+P55103).
T9 sequence (P08476 311-426): T3 sequence (P08476 311-426)
T9 sequence (P55103 237-352): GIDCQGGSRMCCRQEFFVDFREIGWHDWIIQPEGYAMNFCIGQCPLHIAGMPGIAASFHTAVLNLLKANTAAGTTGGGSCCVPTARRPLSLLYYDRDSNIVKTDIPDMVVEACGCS
The test is described as above. The following applies: ligand Activin AC, Table 14. As for the experimental part: as §2

Test [10] addresses T4, activin B. The test is described as above. The conditions noted are these: ligand Activin B, Table 14. How it is done: as §2
Test [11] addresses T1, GDF11. In words: Biacore ligand affinity of ActRIIB-hFc forms, steady-state affinity fit. Format: binding. How it is done: (§3) Affinities of several ligands for ActRIIB(25-131)-hFc and its full-length counterpart ActRIIB(20-134)-hFc were evaluated in vitro with a Biacore™ instrument, and the results are summarized in Table 8 below. Kd values were obtained by steady-state affinity fit due to very rapid association and dissociation of the complex, which prevented accurate determination of kon and koff. ActRIIB(25-131)-hFc bound, for example, activin A, activin B, and GDF11 with high affinity.
(§4) The affinity of ActRIIB variants and other ActRIIB-hFc proteins for several ligands was evaluated in vitro with a Biacore™ instrument. Kd values were obtained by steady-state affinity fit due to the very rapid association and dissociation of the complex, which prevented accurate determination of kon and koff.

The target of test [12] is T3, activin A. The description is as above. It counts as binding. As for the experimental part:
as §3, §4

In test [13] the target is T4, activin B. The description is as above. It counts as binding. How it is done: as §3, §4
Test [14] has as its target T5, BMP10. The test is described as follows: Biacore ligand affinity of ActRIIB-hFc variants (Example 10). It counts as binding. How it is done:
as §4

The target in test [15] is T6, BMP6. The test is described as above. It counts as binding. How it is done:
as §4

The target in test [16] is T2, GDF8. Described as above. Format: binding. As for the experimental part: as §4

B1: ALK4-Fc homodimer: ALK4-Fc homodimer complex used as comparator in Examples 13 and 17 (protein)
chain: SGPRGVQALLCACTSCLQANYTCETDGACMVSIFNLDGMEHHVRTCIPKVELVPAGKPFYCLSSEDLRNTHCCYTDYCNRIDLRVPSGHLKEPEHPSMWGPVE
modifications: left off: a dimerising Fc or GST
What is called Kd is the constant that tells how readily two partners part at equilibrium. For the molecule B1, the Kd with GDF11 [1] stood at 0.27 nM; with GDF8 [2], 15 nM; with GDF8 [8], 15 nM. For the same molecule, the ka with GDF11 [1] came out at 5e+06 M⁻¹ s⁻¹; with GDF8 [2], 130000 M⁻¹ s⁻¹; with activin A [3], 580000 M⁻¹ s⁻¹; with GDF11 [7], 5e+06 M⁻¹ s⁻¹; with GDF8 [8], 130000 M⁻¹ s⁻¹; with activin A [9], 580000 M⁻¹ s⁻¹. In addition, the ka with activin AB worked out at 1.8e+06 M⁻¹ s⁻¹. Further, the kd with GDF11 [1] was determined as 0.0048 s⁻¹; with GDF8 [2] it was 0.0019 s⁻¹; in the test with activin A [3], 0.012 s⁻¹; in the test with GDF11 [7], 0.0048 s⁻¹; with GDF8 [8] it was 0.0019 s⁻¹; with activin A [9] it was 0.012 s⁻¹. In addition, the kd with activin AB was 0.0036 s⁻¹. Moreover, the KD result in the test with activin B [4], with BMP10 [5], with BMP6 [6], in the test with BMP7, with activin AC and with activin B [10] was “No binding” each time.

B2: ActRIIB(L79D 25-131)-hFc: truncated ActRIIB extracellular domain (residues 25-131) with L79D substitution fused to human Fc (protein)
chain: ETRECIYYNANWELERTNQSGLERCEGEQDKRLHCYASWRNSSGTIELVKKGCWDDDFNCYDRQECVATEENPQVYFCCCEGNFCNERFTHLPEAGGPEVTYEPPPTGGGTHTCPPCPAPELLGGPSVFLFPPKPKDTLMISRTPRVTCVVVDVSHEDPEVKFNWYVDGVEVHNAKTKPREEQYNSTYRVVSVLTVLHQDWLNGKEYKCKVSNKALPAPIEKTISKAKGQPREPQVYTLPPSREEMTKNQVSLTCLVKGFYPSDIAVEWESNGQPENNYKTTPPVLDSDGSFFLYSKLTVDKSRWQQGNVFSCSVMHEALHNHYTQKSLSLSPGK
On to B2, for which the “GDF11 binding” value with GDF11 [11] (Biacore) was “nearly full retention of GDF11 binding”. The Kd with GDF11 [11] (Table 12, Kd by steady-state affinity fit, read-out: GDF11 (Kd e−11)) came out at 0.074 nM; with activin A [12] (Table 12, Kd by steady-state affinity fit, read-out: Activin A (Kd e−11)) it was 22.9 nM; in the test with activin B [13] (Table 12, Kd by steady-state affinity fit, read-out: Activin B (Kd e−11)) it was 0.621 nM. Also, the “activin A binding” value in the test with activin A [12] (Biacore) is recorded as “pronounced loss of activin A binding”. Besides, the “activin B binding” value with activin B [13] (Biacore) was “partial loss of activin B binding”. Besides, the “BMP10 binding” value with BMP10 [14] is recorded as “strong to intermediate binding”. Further, the “BMP6 binding” value with BMP6 [15] was “strong to intermediate binding”. The “GDF8 binding” value with GDF8 [16] was “strong to intermediate binding”.
